Like-named read-outs stand apart in the source and are kept apart here.

The values below come from patent US7167802B2, “Methods for identifying agents that interact with MAP kinase activated protein kinase 2” (Wyeth, priority 2002, dated 2007).

One data set has as its target T1, MK2 (Homo sapiens, UniProt P49137).
T1 construct: made in house; host or cells: E. coli BL21 (DE3)
The data set can be described thus: MK2 kinase kinetics, continuous pyruvate kinase/lactate dehydrogenase coupled assay at 340 nm. The format is biochemical. The conditions noted are these: for Km: 25° C. On the procedure:
Activation of MK2 Constructs. The MK2 constructs 41–400 and 41–364 were activated by the phosphorylation of the constructs by p38 MAP kinase. The activation was done in 20 mM HEPES (pH 7.5), 10 mM MgCl2, 2 mM DTT, 0.50 mM ATP, 0.2 mg/ml MK2 and 0.125 μg activated p38. The reaction was incubated at 25° C. for 1–2 hour then placed on ice to be used for kinetic analysis.
Kinase Kinetics. The rate of MK2 kinase was characterized in 20 mM HEPES (pH 7.5), 10 mM MgCl2, 2 mM DTT and 100 mM NaCl. The kinetics was followed by linking the turnover of ATP is to the turnover of NADH to NAD. This was followed spectrophotometrically at 340 nm. The continuos assay contained 20 units pyruvate kinase, 30 units lactate dehydrogenase, 0.25 mM NADH, 2 mM PEP and 1.6 to 8.0 μg/mL MK2. For determining the apparent Km for ATP, the ATP concentration was varied from 0.005 to 0.25 mM while the peptide was held constant at 0.2 mM for activated MK-2 or 1.0 mM for the constitutively active form of MK-2 (41–364). For determining the apparent Km for LSP-1, the LSP-1 concentration was varied from 0.01 to 0.5 mM while ATP was held constant at 2 mM. The kinetic analysis was carried out in a 96-well plate at 25° C., on a Molecular Devices spectrophotometer.
Substrate Kinetics. Peptide LSP, based on the protein substrate of MK-2 lymphocyte/leukocyte specific protein, was used for the investigation of the kinetic mechanism for the enzyme MK-2. Data was fit to equation 1 for normal Michaelis-Menten kinetics. v=Vmax[S]/Km+[S] (1) where [S] is the substrate, Vmax is the maximum enzyme velocity, Km is the Michaelis constant.

The test system of data set [1] is MAP kinase activated protein kinase 2 (MK2). The conditions noted are these: cited from earlier work.
Data set [2] has as its system LPS-induced cytokine synthesis in human monocytes. The settings on record: cited from earlier work.
Setting [3] is: p38 + (construct activated by p38 phosphorylation).
[4] abbreviates: p38 + (construct activated by p38 phosphorylation), ATP held at 2 mM, read-out: Apparent Km (LSP-1).
The mark [5] stands for this setting: p38 activated / phosphorylated by p38.

T1 sequence (P49137 with tags, fused parts or gaps): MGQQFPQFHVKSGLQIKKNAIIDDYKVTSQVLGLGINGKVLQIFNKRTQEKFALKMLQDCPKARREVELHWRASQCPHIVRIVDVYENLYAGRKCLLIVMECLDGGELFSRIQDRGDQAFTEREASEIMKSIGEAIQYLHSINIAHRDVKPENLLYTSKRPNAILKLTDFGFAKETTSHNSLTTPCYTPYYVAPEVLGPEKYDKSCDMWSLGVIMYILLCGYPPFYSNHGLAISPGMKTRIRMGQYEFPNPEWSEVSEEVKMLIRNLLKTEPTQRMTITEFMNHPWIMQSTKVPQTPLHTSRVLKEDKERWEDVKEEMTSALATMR

Consider “41-400: MK2 construct, amino acid residues 41–400, lacking the first 40 residues of the proline rich domain [Construct 41-400]”, for which the Vmax with MK2 (setting [3]) is 8.9 + 0.1 μmole/min/mg; in the data set with MK2 (setting [5]) it was 8.9 µmol/min/mg; with MK2 (p38 − (not phosphorylated)), “no activity”. Besides, the Km in the data set with MK2 (setting [4]) is 13 µM; with MK2 (p38 + (construct activated by p38 phosphorylation), LSP-1 peptide held at 0.2 mM, listed as MK2 41-400, read-out: Apparent Km (ATP)), 15 µM; with MK2 (p38 + (construct activated by p38 phosphorylation), LSP-1 peptide held at 0.2 mM, read-out: Apparent Km (ATP)) it was 7 µM.
With “41-364: constitutively active MK2 polypeptide, residues 41–364, in which a portion of the C-terminal autoinhibitory domain was removed [Construct 41-364]”, the Vmax with MK2 (not phosphorylated) was 0.076 µmol/min/mg; with MK2 (setting [3]), 11 + 14 μmole/min/mg; with MK2 (setting [5]), 11 µmol/min/mg; in the data set with MK2 (p38 − (not phosphorylated)) it was 0.076 + 0.004 μmole/min/mg. In addition, the Km is 20 µM with MK2 (setting [4]); 584 µM with MK2 (p38 − (not phosphorylated), ATP held at 2 mM, read-out: Apparent Km (LSP-1)); 7 µM in the data set with MK2 (p38 − (not phosphorylated), LSP-1 peptide held at 1.0 mM, listed as MK2 41-364, read-out: Apparent Km (ATP)); 15 µM with MK2 (p38 − (not phosphorylated), LSP-1 peptide held at 1.0 mM, read-out: Apparent Km (ATP)). For the same molecule, in the data set with MK2 (unphosphorylated MK2 41-364), the “Km for LSP-1 peptide substrate, fold higher compared to p38 phosphorylated MK2 41-400” value amounted to 45 fold. For the same molecule, in the data set with MK2 (unphosphorylated MK2 41-364), the “Vmax, fold lower compared to p38 phosphorylated MK2 41-400” value turned out to be 100 fold. For the same molecule, the “binding of the peptide substrate LSP-1, fold weaker than to p38 activated MK2 41-400” value with MK2 (unphosphorylated MK2 41-364 vs p38 activated MK2 41-400) is “more than 40 fold”.
In the case of `C[S+]([O-])c1ccc(-c2nc(-c3ccncc3)c(-c3ccc(F)cc3)[nH]2)cc1` (stereo not shown) [SB203580], the “activation of MK2” value in data set [1] was “prevents the activation”. Also, the LPS-induced cytokine synthesis result in data set [2] is given as “inhibits LPS-induced cytokine synthesis”.

Broadly, the Vmax is the top rate of the reaction or transport when substrate is in excess. For orientation: Km means the substrate concentration at which the rate is half of its maximum.
